The source of these data is the supplement of paper PMC9170038.

For this series, the system named is MS2 coat protein. In words: apparent KD of MS2 coat protein; designed switch direction (-1 OFF switch, 1 ON switch): -1; higher = weaker reporter binding. Summed up:
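Three titration conditions were used: no input, 200 uM small-molecule ligand, and an oligonucleotide input. In each, SNAP-549-labelled MS2 coat protein was raised from 0.7 or 1.5 nM, doubling, to 3 µM over designed RNA switches transcribed on Illumina chips by stalled E. coli RNA polymerase. Curve fits of normalised cluster fluorescence gave values whose per-design median over clusters is the apparent KD.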

Where [1] appears, read: Eterna round: R95, input ligand: FMN 200 uM.
The mark [2] stands for this setting: Eterna round: R95, input ligand: microRNA oligo, concentration not stated.
[3] abbreviates: Eterna round: R95, input ligand: none.
Where [4] appears, read: input ligand: microRNA oligo, concentration not stated.

As to “AGUACUAACACGAAAGUGUUAGUACAAUAAGCUAGUGGAACAUGAGGAUCACCCAUGUCCUCAUUAGCUCGUCUUAA [Mat - Sensor v3 - Turn-off var 2 - D34] (puzzle: Sensor v3, turn-off variant 2)”, the “apparent KD of MS2 coat protein” value was 14.2 nM under setting [1], 29.2 nM under setting [2] and 15.5 nM under setting [3].
Taken in the same sequence, the figures for “AGUACUAACACGAAAGUGUUAGUACAAUAAGCUUGUAGAACAUGAGGAUCACCCAUGUCCUCAUAAGCUCGUCUUAU [Mat - Sensor v3 - Turn-off var 2 - D48] (puzzle: Sensor v3, turn-off variant 2)” were 52.1 nM, 442 nM and 53.5 nM.
For the sequence “AGUACUAACACGAAAGUGUUAGUACAAUAAGCUUGUGAAACAUGAGGAUCACCCAUGUCCUCAUAGGCUCGUCUUAU [salish99_TOv2_r3_054] (puzzle: Sensor v3, turn-off variant 2)”, the “apparent KD of MS2 coat protein” value came out at 26.3 nM under setting [1], 607 nM under setting [2] and 18.3 nM under setting [3].
As to “AGUACUAACACGAUAGUGUUAGUACAAUAAGCUUGUGUUACAUGAGGAUCACCCAUGUCCUCAUAAGCUCGUCUUAU [Mat - Sensor v3 - Turn-off var 2 - D54] (puzzle: Sensor v3, turn-off variant 2)”, the “apparent KD of MS2 coat protein” value came to 105 nM under setting [1], 30.4 nM under setting [2] and 129 nM under setting [3].
On to “AGUACUAUCACGAAAGUGAUAGUACAACGAGCUUGUGAAACAUGAGGAUCACCCAUGUCCUCAUGAGUUCGUCUUAU [JL turnoff v2 67] (Eterna round: R96, puzzle: Sensor v2, turn-off variant 2)”, for which the “apparent KD of MS2 coat protein” value runs as follows: (input ligand: FMN 200 uM) 13.9 nM; under setting [4], 65.4 nM; (input ligand: none) 15.7 nM.
Regarding “AGUACUAUGCGAGCUGACUUGCGUAGUGCAGCAGGUGUUACAUGAGGAUCACCCAUGUCCUCAUUUGCUCGUCUUAA [Mat - Sensor v3 - Turn-off var 2 - D7] (puzzle: Sensor v3, turn-off variant 2)”, the “apparent KD of MS2 coat protein” value by setting is: under setting [1], 267 nM; under setting [2], 91.8 nM; under setting [3], 293 nM.
Taken in the same sequence, the figures for “AGUACUGACACGUUGGUGUUAGUACCAUAAGCUUGUGAUACAUGAGGAUCACCCAUGUCCUCAUAAGCUCGUCUUAU [salish99_TOv2_r2_096] (puzzle: Sensor v3, turn-off variant 2)” were 27.4 nM, 484 nM and 26 nM.
Take “AGUACUGAGCAGGAUAUAUACAGGAUGCCCUCUGUAGAAGGGCUAACAUGAGGAUCACCCAUGUCCUAUAUGGC [Eternabot (L2) Solution 56] (Eterna round: R97, puzzle: Exclusion 6)”: the “apparent KD of MS2 coat protein” value (input ligand: FMN 200 uM) came out at 39 nM and the “apparent KD of MS2 coat protein” value (input ligand: none) is 49.1 nM.
Take “AGUACUUACACGAAAGUGUAAGUACAAUAAGCUUGUGGAACAUGAGGAUCACCCAUGUCCUCAUAAGCUCGUCUUAU [Mat - Sensor v3 - Turn-off var 2 - D28] (puzzle: Sensor v3, turn-off variant 2)”: the “apparent KD of MS2 coat protein” value under setting [1] was 14.5 nM, the “apparent KD of MS2 coat protein” value under setting [2] is 75.2 nM and the “apparent KD of MS2 coat protein” value under setting [3] worked out at 14.3 nM.
“AGUAGGUCUACCUUGGUGGAUCUGCAUUUAUGCAGGUGUACAUGAGGAUCACCCAUGUCCUCAUUUGCUCGUCUUAU [JL turnoff v2 99.27] (puzzle: Sensor v3, turn-off variant 2)”: the “apparent KD of MS2 coat protein” value was found to be 400 nM under setting [1], 501 nM under setting [2] and 349 nM under setting [3].
Taken in the same sequence, the figures for “AGUAGUAGUAUCCGAUCCUACAUGAGGAUCACCCAUGUAGCUAGACGUGCACGCGAUGCUCGUCAGACUACCAGAUG [salish99_TOv1_r3_033] (puzzle: Sensor v3, turn-off variant 1)” were 195 nM, 184 nM and 253 nM.
On the same counts, the results for “AGUAGUAGUAUCCGAUCCUACAUGAGGAUCACCCAUGUAGCUAGACGUGCACGCGAUGCUCGUCAGACUGCCAGAUG [salish99_TOv1_r3_049] (puzzle: Sensor v3, turn-off variant 1)” are 95.4 nM, 97.8 nM and 128 nM.
As to “AGUAGUAGUAUCCGAUCUUACAUGAGGAUCACCCAUGUAGCUAGACGUGCACGCGAUGCUCGUCAGACUACCAGAUG [salish99_TOv1_r3_051] (puzzle: Sensor v3, turn-off variant 1)”, the “apparent KD of MS2 coat protein” value is, setting by setting: under setting [1], 148 nM; under setting [2], 230 nM; under setting [3], 277 nM.
For the sequence “AGUAGUUCAGGAUAUGAUGUUAAAUACAUGAGGAUCACCCAUGUAGAUCCUGAAUUUACAUCAGAAGGGAAUAACU [JR_Ex5_Sub082] (Eterna round: R97, puzzle: Exclusion 5)”, the “apparent KD of MS2 coat protein” value (input ligand: FMN 200 uM) amounted to 91.7 nM and the “apparent KD of MS2 coat protein” value (input ligand: none) came out at 25.5 nM.
On the same counts, the results for “AGUAUGUCAGGAUAUCUCGGGUAGCCCACAACGACUACCGAAGAGAAGGGACAUGAGGAUCACCCAUGUACCAU [EX4 B.15] (Eterna round: R97, puzzle: Exclusion 4)” are 29.9 nM and 34.3 nM.
For “AGUCGAAAGAUCCACAUGGACAUGAGGAUCACCCAUGUGCAAGCCUUUUUCUCGUCACUAUCGUCAAAAGACGAUAG [Omei Mir Offv1 A6] (Eterna round: R97, puzzle: Sensor, turn-off variant 1)”, the “apparent KD of MS2 coat protein” value by setting is: (input ligand: FMN 200 uM) 185 nM; (input ligand: none) 234 nM.
“AGUCGGCGAGGAUAUACAUGAGGAUCACCCAUGUAUGAUCCUAGACCUGUAGGUCCAUGUAGAAGGCGCUGACA [Exclusion 3 - Was a mod at one point v.3] (puzzle: Exclusion 3)”: the “apparent KD of MS2 coat protein” value under setting [2] stood at 66.2 nM.
Still for that read-out and setting: the same measure for “AGUGCGUAUGUGAGGAUAUGCUGGUCCUUGGAUCAGCAGAAGGCACAUGAGGAUCACCCAUGUGGUGUCGUACA [salish99_Bmod_Ex4_006] (puzzle: Brourd's mod of Exclusion 4)”: 320 nM.
Turning to “AGUGCUAACACGAAAGUGUUAGUACAAUAAGCUUGUGAAACAUGAGGAUCACCCAUGUCCUCAUAAGCUCGUCUUAU [salish99_TOv2_r3_014] (puzzle: Sensor v3, turn-off variant 2)”, the “apparent KD of MS2 coat protein” value is, setting by setting: under setting [1], 17.8 nM; under setting [2], 651 nM; under setting [3], 17.7 nM.
On the same counts, the results for “AGUGCUGACACGUUGGUGUUAGUACCAUAAGCUUGUGAUACAUGAGGAUCACCCAUGUCCUCAUAAGCUCGUCUUAU [salish99_TOv2_r2_097] (puzzle: Sensor v3, turn-off variant 2)” are 28.6 nM, 669 nM and 26.8 nM.
As to “AGUGCUGCAGGAUAUUCUAUUAAUUACAUGAGGAUCACCCAUGUGAAUGGACAAGGGUGUGAAGAAGGGUGGUACG [Omei Ex5 A17i] (Eterna round: R97, puzzle: Exclusion 5)”, the “apparent KD of MS2 coat protein” value came out at 262 nM (input ligand: FMN 200 uM) and 496 nM (input ligand: none).
Consider “AGUGGUAGUAUCCGAUCCUACAUGAGGAUCACCCAUGUAGCUAGACGUGCACGCGAUGCUCGUCAGACUACCAGAUG [salish99_TOv1_r3_040] (puzzle: Sensor v3, turn-off variant 1)”, for which the “apparent KD of MS2 coat protein” value stood at 16.5 nM under setting [1], 14.1 nM under setting [2] and 18.1 nM under setting [3].
On to “AGUUGUAAAGAGGAUAUCCAUCCCGGCAUCCAUGGAGAAGGUUUAACAUGAGGAUCACCCAUGUCAUGAUCCUC [Eternabot (L2) Solution 3] (Eterna round: R97, puzzle: Exclusion 6)”, for which the “apparent KD of MS2 coat protein” value was 824 nM (input ligand: FMN 200 uM) and 692 nM (input ligand: none).
With “AUAAAACGUGUAGGAUAUGCGUGGCGAAGCUAUGCAGAAGGACAUGAGGAUCACCCAUGUUCAAGCGUCUGCGUACAGAUGCUA [JL eng1 1.35 mod 6] (Eterna round: R96, puzzle: Exclusion NG 1)”, the “apparent KD of MS2 coat protein” value was determined as 16.9 nM (input ligand: FMN 200 uM), 14.1 nM under setting [4] and 14.5 nM (input ligand: none).
For the sequence “AUAAAGAAUGUUAGGAUAUUGGUGAAUAGGCUGACUAAGAAGGAACAUGAGGAUCACCCAUGUAACAUGGAAAA [Tiinzaesqu] (puzzle: Brourd's mod of Exclusion 4)”, the “apparent KD of MS2 coat protein” value came to 68.8 nM under setting [1], 24.5 nM under setting [2] and 33.6 nM under setting [3].
“AUAAAUCAUGUAGGAUAUGCGUGGCAAAGCUAUGCAGAAGGACAUGAGGAUCACCCAUGUCUUUCCGUCUGAGUACAGACGGGA [Mat - Exclusion NG 1 - Mod of JL - D47] (Eterna round: R96, puzzle: Exclusion NG 1)”: the “apparent KD of MS2 coat protein” value runs as follows: (input ligand: FMN 200 uM) 172 nM; under setting [4], 21.1 nM; (input ligand: none) 24.9 nM.
Taken in the same sequence, the figures for “AUAAAUCAUGUAGGAUAUGCGUGGCGAAGCUAUGCAGAAGGACAUGAGGAUCACCCAUGUGCUUGCGUCCGCGUACGGAUGCAA [Mat - Exclusion NG 1 - Mod of JL - D69] (Eterna round: R96, puzzle: Exclusion NG 1)” were 65.2 nM, 155 nM and 231 nM.
Take “AUAACAUGCUGGUGAUCAUACAUGAGGAUCACCCAUGUAACAAGCUUUUUGCUCGUCUUAUAAUUUAAGAUCACCAG [Stov1/7-A2] (Eterna round: R97, puzzle: Sensor, turn-off variant 1)”: the “apparent KD of MS2 coat protein” value stood at 17.4 nM (input ligand: FMN 200 uM) and 18.1 nM (input ligand: none).
